The star is where a group is joined. FITC = O=C1OC2(c3ccc(O)cc3Oc3cc(O)ccc32)c2ccc(NC(=S)*)cc21
T1: His-tagged FtsZ (M. tuberculosis H37Rv, UniProt P9WN95 1-379)
T1 sequence: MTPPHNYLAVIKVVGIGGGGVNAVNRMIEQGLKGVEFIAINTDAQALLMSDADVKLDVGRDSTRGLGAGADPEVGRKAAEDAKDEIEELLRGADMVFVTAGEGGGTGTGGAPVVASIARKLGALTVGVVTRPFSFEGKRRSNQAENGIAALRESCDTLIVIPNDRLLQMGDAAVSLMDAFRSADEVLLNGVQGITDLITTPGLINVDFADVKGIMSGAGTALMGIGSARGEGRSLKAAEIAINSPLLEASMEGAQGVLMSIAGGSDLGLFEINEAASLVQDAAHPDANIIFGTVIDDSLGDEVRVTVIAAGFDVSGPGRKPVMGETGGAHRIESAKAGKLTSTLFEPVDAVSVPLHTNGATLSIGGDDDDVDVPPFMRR

B1: His-tagged SepFc (N-terminal truncated version of SepF, amino acids 115-203) (domain or fragment)
chain: EMTRPRFGSWLRNSTRGALAMDPRRMAMMFEDGHPLSKITTLRPKDYSEARTIGERFRDGSPVIMDLVSMDNADAKRLVDFAAGLAFAL

How the values were obtained:
SepF = SepF (Mycobacterium tuberculosis, UniProt P9WGJ5); assay: SPR; format: binding
SepF, sequence (P9WGJ5 115-203): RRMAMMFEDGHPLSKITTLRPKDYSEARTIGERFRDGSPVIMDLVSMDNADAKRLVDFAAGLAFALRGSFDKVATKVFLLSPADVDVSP

His-tagged FtsZ = biological target: T1, His-tagged FtsZ; assay: SPR
[1] = biological target: B1; assay: fluorescence polarisation

How did the Kd (SepF) turn out when OC(COc1ccc2ccccc2c1)CN1CCCN(CC(O)COc2ccc3ccccc3c2)CC1 (stereo not drawn) [T0349, 1-{4-[2-hydroxy-3-(naphthalen-2-yloxy)propyl]-1,4-diazepan-1-yl}-3-(naphthalen-2-yloxy) propan-2-ol] was run?
The Kd was 46.8 µM.

For B1, which Kd (His-tagged FtsZ) is on record?
Its Kd is 5.16 µM.

Which Kd [1] does the source give for {FITC}-SIGGDDDDVDVPPFMRR-OH [FITC-FtsZ (FITC-SIGGDDDDVDVPPFMRR-OH, 363-379 amino acids of the full-length FtsZ)] here?
Its Kd is 0.0186 µM.

From PMC10213792 (Acta Pharmaceutica Sinica. B, 2023)
